Results taken from patent US20200317768A1 (published 2020).

T1: human FcγRIIb extracellular domain, His-tagged (human, UniProt P31994 43-217)
T1 construct: also called human FcgRIIb; not shown: His-tag added to the C-terminus
T1 sequence: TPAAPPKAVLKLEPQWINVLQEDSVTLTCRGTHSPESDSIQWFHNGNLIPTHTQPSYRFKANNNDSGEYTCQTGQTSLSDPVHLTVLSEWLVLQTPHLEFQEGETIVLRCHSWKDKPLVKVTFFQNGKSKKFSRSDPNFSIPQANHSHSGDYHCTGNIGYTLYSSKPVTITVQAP

T2: cynomolgus monkey FcγRIIa3 extracellular domain, His-tagged (cynomolgus monkey)
T2 construct: also called cyno FcgRIIa3; cynoFcγRIIa3; not shown: His-tag added to the C-terminus
T2 chain: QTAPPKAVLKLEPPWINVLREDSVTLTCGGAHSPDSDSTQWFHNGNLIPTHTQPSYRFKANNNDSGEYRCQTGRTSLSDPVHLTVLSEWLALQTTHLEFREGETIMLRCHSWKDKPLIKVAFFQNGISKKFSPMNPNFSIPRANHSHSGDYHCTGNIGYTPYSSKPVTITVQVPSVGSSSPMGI

T3: cynomolgus monkey FcγRIIb extracellular domain, His-tagged (cynomolgus monkey)
T3 construct: also called cyno FcgRIIb; cynoFcγRIIb; not shown: His-tag added to the C-terminus
T3 chain: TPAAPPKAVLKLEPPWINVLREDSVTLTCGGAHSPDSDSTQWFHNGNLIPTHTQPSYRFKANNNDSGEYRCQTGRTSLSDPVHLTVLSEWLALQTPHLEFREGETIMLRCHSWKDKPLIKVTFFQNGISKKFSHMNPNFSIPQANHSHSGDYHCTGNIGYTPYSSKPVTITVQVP

T4: cynomolgus monkey FcγRIIa1 extracellular domain, His-tagged (cynomolgus monkey)
T4 construct: also called cyno FcgRIIa1; cynoFcγRIIa1; not shown: His-tag added to the C-terminus
T4 chain: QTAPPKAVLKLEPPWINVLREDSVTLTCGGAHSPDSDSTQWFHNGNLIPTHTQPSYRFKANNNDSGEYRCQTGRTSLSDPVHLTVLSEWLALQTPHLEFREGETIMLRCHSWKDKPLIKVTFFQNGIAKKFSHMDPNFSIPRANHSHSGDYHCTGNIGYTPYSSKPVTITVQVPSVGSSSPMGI

T5: cynomolgus monkey FcγRIIa2 extracellular domain, His-tagged (cynomolgus monkey)
T5 construct: also called cyno FcgRIIa2; cynoFcγRIIa2; not shown: His-tag added to the C-terminus
T5 chain: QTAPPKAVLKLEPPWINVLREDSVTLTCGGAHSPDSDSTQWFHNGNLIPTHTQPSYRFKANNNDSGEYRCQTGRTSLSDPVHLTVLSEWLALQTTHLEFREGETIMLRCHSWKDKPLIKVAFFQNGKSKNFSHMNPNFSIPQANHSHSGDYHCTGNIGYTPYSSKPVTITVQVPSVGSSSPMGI


What was measured:
Experiment in all cases: SPR (BIACORE), antibody captured, FcγR as analyte, 25°C
[1] = molecular target: T6, cynomolgus monkey FcγRIIIaS extracellular domain, His-tagged (cynomolgus monkey, UniProt A3RFZ7 21-206 (rhesus entry))
T6 construct: also called cyno FcgRIIIaS; cynoFcγRIIIaS; not shown: His-tag added to the C-terminus
Procedure: (§1) The kinetic analysis of interactions between these antibodies and FcγR was carried out using BIACORE® T200 or BIACORE® 4000 (GE Healthcare). HBS-EP+ (GE Healthcare) was used as the running buffer, and the measurement temperature was set to 25° C. A chip produced by immobilizing Protein A. Protein A/G or mouse anti-human IgG kappa light chain (BD Biosciences) onto a Series S Sensor Chip CM4 or CM5 (GE Healthcare) by the amine-coupling method was used. […] After the measurement, the antibody captured on the chip was washed off by allowing reaction with 10 mM glycine-HCl, pH1.5 and 25 mM NaOH so that the chip was regenerated and used repeatedly. The sensorgrams obtained as measurement results were analyzed by the 1:1 Langmuir binding model using the BIACORE® Evaluation Software to calculate the binding rate constant ka (L/mol/s) and dissociation rate constant kd (l/s), and the dissociation constant KD (mol/L) was calculated from these values. […] Regarding such interactions, KD values were calculated using the following 1:1 binding model described in BIACORE® T100 Software Handbook BR1006-48 Edition AE.
(§2) The behavior of interacting molecules according to the 1:1 binding model on BIACORE® can be described by Equation 1: Req=C·R max/(KD+C)+RI, wherein, Req is a plot of steady-state binding levels to analyte concentration. C is concentration, RI is bulk refractive index contribution in the sample, and Rmax is analyte binding capacity of the surface. When this equation is rearranged, KD can be expressed as Equation 2: KD=C·Rmax/(Req−RI)−C. KD can be calculated by substituting the values of Rmax, RI, and C into Equation 1 or Equation 2. From the current measurement conditions, RI=0, C=2 μmol/L can be used.

[2] = molecular target: T1, human FcγRIIb extracellular domain, …
Procedure: as §1, §2

[3] = molecular target: T7, human FcγRIIIaV extracellular domain, His-tagged (human, UniProt P08637 17-208)
T7 construct: also called human FcgRIIIaV; not shown: His-tag added to the C-terminus
T7 sequence (P08637 17-208 F176V): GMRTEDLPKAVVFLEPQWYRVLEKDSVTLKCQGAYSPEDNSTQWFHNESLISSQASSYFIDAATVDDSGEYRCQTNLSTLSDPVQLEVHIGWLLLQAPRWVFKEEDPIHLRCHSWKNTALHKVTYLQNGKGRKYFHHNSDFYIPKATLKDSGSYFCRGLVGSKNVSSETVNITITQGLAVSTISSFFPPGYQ
Procedure: as §1, §2

[4] = molecular target: T2, cynomolgus monkey FcγRIIa3 …
Procedure: as §1, §2

[5] = molecular target: T3, cynomolgus monkey FcγRIIb extracellular …
Procedure: as §1, §2

[6] = molecular target: T4, cynomolgus monkey FcγRIIa1 …
Procedure: as §1, §2

[7] = molecular target: T5, cynomolgus monkey FcγRIIa2 …
Procedure: as §1, §2

Row | Binder | Kd [1] [µM] | Kd [2] [µM] | Kd [3] [µM] | Kd [4] [µM] | Kd [5] [µM] | Kd [6] [µM] | Kd [7] [µM]
1 | MS1032LO06-SG1 (M103205H795-SG1/M103202L889-SK1) (antibody, human IgG1, kappa, Anti-latent myostatin antibody; Parent of the Fc variants; copies: 2 + 2) heavy: not shown light: DIVMTQSPATLSLSPGERATLSCTSSQSVYHANWLSWFQQKPGQPPKLLIYWASTLAYGVPSRFSGSGSGTDFTLTISSLQPEDAATYYCAGGYGGGRYAFGQGTKVEIKRTVAAPSVFIFPPSDEQLKSGTASVVCLLNNFYPREAKVQWKVDNALQSGNSQESVTEQDSKDSTYSLSSTLTLSKADYEKHKVYACEVTHQGLSSPVTKSFNRGEC | 0.36 | 4.6 | 0.81 | 17 | 1.8 | 3.2 | 5.1
2 | M103205H795-MY262/M103202L889-SK1 (antibody, human IgG1, kappa, copies: 2 + 2) heavy: QVTLKESGPVLVKPTETLTLTCTVSGIDLSHDDISWVRQAPGKGLEWVGIISYAGSTYYASWAKGRLTISKDTSKNQVVLTMTNMDPVDTATYYCARGVPAYSHGGDLWGQGTLVTVSSASTKGPSVFPLAPSSKSTSGGTAALGCLVKDYFPEPVTVSWNSGALTSGVHTFPAVLQSSGLYSLSSVVTVPSSSLGTQTYICNVNHKPSNTKVDKKVEPKSCDKTHTCPPCPAPELLVGPSVFLFPPKPKDTLMISRTPEVTCVVVDVSDEDPEVKFNWYVDGVEVHNAKTKPREEQYNSTYRVVSVLTVLHQDWLNGKEYKCKVSNKALPKPIEKTISKAKGQPREPQVYTLPPSREEMTKNQVSLTCLVKGFYPSDIAVEWESNGQPENNYKTTPPVLDSDGSFFLYSKLTVDKSRWQQGNVFSCSVMHEALHNHYTQKSLSLSP light: DIVMTQSPATLSLSPGERATLSCTSSQSVYHANWLSWFQQKPGQPPKLLIYWASTLAYGVPSRFSGSGSGTDFTLTISSLQPEDAATYYCAGGYGGGRYAFGQGTKVEIKRTVAAPSVFIFPPSDEQLKSGTASVVCLLNNFYPREAKVQWKVDNALQSGNSQESVTEQDSKDSTYSLSSTLTLSKADYEKHKVYACEVTHQGLSSPVTKSFNRGEC | 2.8 | 6 | 5 | 8 | 0.56 | 1.9 | 1.7
3 | M103205H795-MY201/M103202L889-SK1 (antibody, human IgG1, kappa, Fc variant G236N/H268D/A330K (EU numbering) of SG1; also called MS1032LO06-MY201; copies: 2 + 2) heavy: QVTLKESGPVLVKPTETLTLTCTVSGIDLSHDDISWVRQAPGKGLEWVGIISYAGSTYYASWAKGRLTISKDTSKNQVVLTMTNMDPVDTATYYCARGVPAYSHGGDLWGQGTLVTVSSASTKGPSVFPLAPSSKSTSGGTAALGCLVKDYFPEPVTVSWNSGALTSGVHTFPAVLQSSGLYSLSSVVTVPSSSLGTQTYICNVNHKPSNTKVDKKVEPKSCDKTHTCPPCPAPELLNGPSVFLFPPKPKDTLMISRTPEVTCVVVDVSDEDPEVKFNWYVDGVEVHNAKTKPREEQYNSTYRVVSVLTVLHQDWLNGKEYKCKVSNKALPKPIEKTISKAKGQPREPQVYTLPPSREEMTKNQVSLTCLVKGFYPSDIAVEWESNGQPENNYKTTPPVLDSDGSFFLYSKLTVDKSRWQQGNVFSCSVMHEALHNHYTQKSLSLSP light: DIVMTQSPATLSLSPGERATLSCTSSQSVYHANWLSWFQQKPGQPPKLLIYWASTLAYGVPSRFSGSGSGTDFTLTISSLQPEDAATYYCAGGYGGGRYAFGQGTKVEIKRTVAAPSVFIFPPSDEQLKSGTASVVCLLNNFYPREAKVQWKVDNALQSGNSQESVTEQDSKDSTYSLSSTLTLSKADYEKHKVYACEVTHQGLSSPVTKSFNRGEC | 5.7 | 1.1 | 24 | 3.9 | 0.43 | 1.4 | 1.4

The next lines start with the values.

Row | Kd [1] [µM] | Kd [2] [µM] | Kd [3] [µM] | Kd [4] [µM] | Kd [5] [µM] | Kd [6] [µM] | Kd [7] [µM] | Binder
4 | 0.074 | 5.3 | 11 | 6.5 | 1.5 | 3.7 | 4 | M103205H795-MY261/M103202L889-SK1 (antibody, human IgG1, kappa, copies: 2 + 2) heavy: QVTLKESGPVLVKPTETLTLTCTVSGIDLSHDDISWVRQAPGKGLEWVGIISYAGSTYYASWAKGRLTISKDTSKNQVVLTMTNMDPVDTATYYCARGVPAYSHGGDLWGQGTLVTVSSASTKGPSVFPLAPSSKSTSGGTAALGCLVKDYFPEPVTVSWNSGALTSGVHTFPAVLQSSGLYSLSSVVTVPSSSLGTQTYICNVNHKPSNTKVDKKVEPKSCDKTHTCPPCPAPELLHGPSVFLFPPKPKDTLMISRTPEVTCVVVDVSDEDPEVKFNWYVDGVEVHNAKTKPREEQYNSTYRVVSVLTVLHQDWLNGKEYKCKVSNKALPKPIEKTISKAKGQPREPQVYTLPPSREEMTKNQVSLTCLVKGFYPSDIAVEWESNGQPENNYKTTPPVLDSDGSFFLYSKLTVDKSRWQQGNVFSCSVMHEALHNHYTQKSLSLSP light: DIVMTQSPATLSLSPGERATLSCTSSQSVYHANWLSWFQQKPGQPPKLLIYWASTLAYGVPSRFSGSGSGTDFTLTISSLQPEDAATYYCAGGYGGGRYAFGQGTKVEIKRTVAAPSVFIFPPSDEQLKSGTASVVCLLNNFYPREAKVQWKVDNALQSGNSQESVTEQDSKDSTYSLSSTLTLSKADYEKHKVYACEVTHQGLSSPVTKSFNRGEC
5 | 0.65 | 6.1 | 3 | 14 | 1.6 | 4.5 | 3.7 | M103205H795-MY260/M103202L889-SK1 (antibody, human IgG1, kappa, copies: 2 + 2) heavy: QVTLKESGPVLVKPTETLTLTCTVSGIDLSHDDISWVRQAPGKGLEWVGIISYAGSTYYASWAKGRLTISKDTSKNQVVLTMTNMDPVDTATYYCARGVPAYSHGGDLWGQGTLVTVSSASTKGPSVFPLAPSSKSTSGGTAALGCLVKDYFPEPVTVSWNSGALTSGVHTFPAVLQSSGLYSLSSVVTVPSSSLGTQTYICNVNHKPSNTKVDKKVEPKSCDKTHTCPPCPAPELLMGPSVFLFPPKPKDTLMISRTPEVTCVVVDVSDEDPEVKFNWYVDGVEVHNAKTKPREEQYNSTYRVVSVLTVLHQDWLNGKEYKCKVSNKALPKPIEKTISKAKGQPREPQVYTLPPSREEMTKNQVSLTCLVKGFYPSDIAVEWESNGQPENNYKTTPPVLDSDGSFFLYSKLTVDKSRWQQGNVFSCSVMHEALHNHYTQKSLSLSP light: DIVMTQSPATLSLSPGERATLSCTSSQSVYHANWLSWFQQKPGQPPKLLIYWASTLAYGVPSRFSGSGSGTDFTLTISSLQPEDAATYYCAGGYGGGRYAFGQGTKVEIKRTVAAPSVFIFPPSDEQLKSGTASVVCLLNNFYPREAKVQWKVDNALQSGNSQESVTEQDSKDSTYSLSSTLTLSKADYEKHKVYACEVTHQGLSSPVTKSFNRGEC
